From patent US20210101937A1

Target: CD137 (UniProt Q07011)
Assay: cell-based or functional assay

Chain of CD137 (Q07011 24-255 limits assumed): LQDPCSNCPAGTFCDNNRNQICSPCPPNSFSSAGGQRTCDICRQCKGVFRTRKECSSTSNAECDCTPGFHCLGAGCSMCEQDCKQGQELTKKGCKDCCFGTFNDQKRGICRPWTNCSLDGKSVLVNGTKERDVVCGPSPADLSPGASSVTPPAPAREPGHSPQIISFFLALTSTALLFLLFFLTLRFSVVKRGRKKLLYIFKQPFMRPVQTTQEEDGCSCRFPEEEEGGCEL

EC50, CD137 reporter coculture assay with NCI-H292 cells | Emax, CD137 reporter coculture assay with NCI-H292 cells (fold over background) | EC50, CD137 reporter coculture assay with PC3 cells | Emax, CD137 reporter coculture assay with PC3 cells (fold over background) | Substance
1.1 nM | 28 |  |  | BCY10000 (peptide)
 |  | 0.54 nM | 42 | BCY9173 (peptide)
